We go through two molecules from paper PMC12119571, “The Porphyromonas gingivalis RNA-binding protein is required for growth in high levels of zinc and persistence with host cells”.

For data set [1], the system named is RbpPg1 (Halo) (Porphyromonas gingivalis W83). As to the kind of experiment: pull-down of total RNA, RNA-seq. To be noted: EMSA: LightShift Chemiluminescent RNA EMSA kit, on ice 30 min, TBE 10% gel at 4 C (buffer in Suppl. Tables 3-5, not in the material); His pulldown: 1 h at 4 C …. For orientation: A gel shift assay detects complexes by their altered migration in electrophoresis.

Data set [2] addresses T1, RbpPg1 (Porphyromonas gingivalis W83) (UniProt Q7MWI3).
T1 sequence: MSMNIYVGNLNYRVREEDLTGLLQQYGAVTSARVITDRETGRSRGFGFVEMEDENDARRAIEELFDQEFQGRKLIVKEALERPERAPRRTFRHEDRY
As to the kind of experiment: pull-down of total RNA, RNA-seq. To be noted: EMSA: LightShift Chemiluminescent RNA EMSA kit, on ice 30 min, TBE 10% gel at 4 C (buffer in Suppl. Tables 3-5, not in the material); His pulldown: 1 h at 4 C ….

The target in data set [3] is T2, RbpPg1 (Porphyromonas gingivalis W83, UniProt Q7MWI3 1-97).
T2 sequence: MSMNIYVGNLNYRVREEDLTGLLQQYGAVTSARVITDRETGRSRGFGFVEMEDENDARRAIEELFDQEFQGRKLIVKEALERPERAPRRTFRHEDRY
The experiment in a line: EMSA; shift reduced by unlabeled IRE RNA; EMSA: LightShift Chemiluminescent RNA EMSA kit, on ice 30 min, TBE 10% gel at 4 C (buffer in Suppl. Tables 3-5, not in the material); His pulldown: 1 h at 4 C. The note with it: protein: recombinant; tags: His-tag (pET30a, NcoI/XhoI); label: 3' biotin; IRE stem loop (hairpin).

As to PG2090 zinc efflux transcript, the binding signal (fold enrichment over HU-beta) in data set [1] was 639; in data set [2], 71.3.

B1: IRE control RNA (LightShift kit) (structured_RNA)
RNA: UCCUGCUUCAACAGUGCUUGGACGGAAC
B1: the binding result in data set [3] is “binds”.
